The source of these data is US20080261267A1, “Cellulases from Rumen” (priority 2004, published 2008).

A short description of series [1]: Specific activity of purified endoglucanases. In kind it is biochemical. Conditions: purified to homogeneity; pH 5.6 and 50° C.; CMC as substrate. The method, then:
FIG. 2 represents Table 2 which contains the data obtained by purification of endoglucanases of seven clones (pBKRR.1, 9, 11, 13, 14, 16 and 22) with respect to the specific activity. […] They were purified to homogeneity and their specific activity was estimated at pH 5.6 and 50° C., using CMC as substrate.
The endoglucanases were recovered from 1-liter shaked flask fermentations, in Luria-Bertany broth plus 50 μg of Kanamycin per ml. One gram of fermentation broth was mixed with 10 ml of standard buffer in a 50-ml Falcon tube. The solution was vortexed and then incubated with DNase I grade II, for 30-45 min, and then sonicated for 4 min total time. A sample of the soluble fraction was separated from insoluble debris by centrifugation (10,000×g, 30 min, 4° C.) and proteins were precipitated by addition of 80% chilled acetone (−20° C.). Proteins were resuspended in standard buffer and stored at −20° C. at a concentration of 5 mg/ml until use. The amount of protein expression was examined using SDS-PAGE with 10-12% acrylamide. […] The gel region containing the active cellulase, detected in a parallel track by activity staining (using Ostazin brillian-blue carboxymethyl cellulose) was excised, suspended in two volumes of standard fuffer and homogenized in a glass tissue homogenizer. […]
The standard cellulase activity was determined in a continuous spectrophotometric assay by measuring the release of reducing sugars from the 4% (wt/vol carboxymethyl cellulose (CMC) in 0.5-ml reaction mixtures containing 50 mM sodium acetate buffer, pH 5.6, at 40° C., using the dinitrosalycilic acid (DNS) method (Bernfeld, P. (1955) Amilases and b. In: Colowick S P, Kaplan N O (eds). Methods in Enzymology, Academic Press, New York pp. 133-155). The reaction was performed in 0.5 ml scale containing 20 mg substrate and 5 mg lyophilised cells or 0.1 mg purified enzyme. Reactions were allow to proceed for a time period of 5-30 min after which the samples were centrifuge (10,000×g, 3 min). […] Finally, each well was diluted with 150 μl water and the absorbance at 550 nm was measured. […]

Series [2] is described as follows: TLC analysis of hydrolysis products. The settings on record: pH 5.6, 50° C. The format is biochemical. The text has this: FIG. 7 depicts the result of thin layer chromatography TLC analysis of products of CMC hydrolyzed by endoglucanases derived from a rumial genomic DNA library. The methods used for cellulase and substrate preparation, hydrolysis, TLC, and visualization are described in Example 5. The hydrolysis products glucose, cellobiose, cellotriose are shown an the right side. […] Different pattern was found when using short-chain beta-1,4-glucans.
The products formed by hydrolysis of cellulose-based substrates (cellobiose, cellotetraose, cellopentaose, cellulose and carboxymethyl cellulose) were analysed by thin-layer chromatography (TLC). Solutions containing 20 μg of E. coli cell lysate proteins and 0.2% (wt/vol) substrate in 50 mM acetate buffer (pH 5.6) were incubated at 50° C. until maximum conversion was achieved. The reactions were terminated by heating the preparation for 5 min at 95° C. and hydrolysis products were separated by TLC on silica gel plates (Merck, Darmstadt, Germany) by using a mixture chloroform, glacial acetic acid, and water (6:14:1) as the solvent. […] Sugars were visualized by heating 105° C. for 15 min the plates which were previously sprayed with a reagent containing amine (2 ml), diphenylamine (2 g), acetone (100 ml) and 85% H3PO4 (15 ml).

B1: pBKRR.22: rumen endo-beta-1,4-glucanase, sequences FIG. 11/19 (protein)
chain: MLLASFSLFSCGGSDGDDSTPTPSVSLQLVSQSIAEGAQVDAASTTVLTLNYNNPVRVTGNGVTLNGIAVKAKVSGNTSVEIPLTLVEGTVYTLKVAWGAIVAAADGKVVAPEFTLNFTTKGNQQPPIDENSPIAKKMGWGWNLGNHFDTSSGADGVRPQWGYWDNAKPTQVLYNNLRNAGTSTVRIGVTWGNYQNTSNWDIDANYIAEVRQNVEWAEAAGLNVILNMHHDEYWLDIKGAANNSSTNTNIKNRIEKTWKQIAEAFKDKGEFLIFESFNEIQDGGWGWGANRTDGGKQYKTLNEWNQLVVNTIRATGGNNATRWIGIPSYAANPSLALETGFVLPTDAANRLMVSVHFYDPSNFTLSPYVSDDSSEYKSGGYSEWGHTAAKGKADTGSNEDHVVAIFKKLHDKFVAKNIPVYIGEYGCVMHKNTRSNYFRNYYLEYVCRAAHEYGMPLCIWDNNQTGGGNEHHGYFNHTDGQYLNAMESLVKTMIKAATSDDASYTLESVYNKAPK
modifications: Description of sequence sequence derived from genomic DNA library from rumen ecosystem, particularly amino acid sequence of clones pBKRR 22, 6, 8 and 23;(see Figure 19)
For B1, the specific activity in series [1] worked out at 68.30 µmol/min/mg. For the same molecule, the “main hydrolysis products of CMC” value in series [2] was “cellobiose and cellotriose”.

B2: pBKRR.14: rumen endoglucanase, sequences FIG. 16/24; also capable of hydrolyzing xylan (protein)
chain: MINVLQHHPEVELSVDKTSVSFNRSGGEETFTVTSSTQPHVSADVSWVVVETGKIDKDHHTEVRVLAGANRKEASAGTLTVSCSDKKVSVSVKQEAFVAPSVASTTAVTPQMVFDAMGPGWNMGNHMDAISNGVSGETVWGNPKCTQATMDGVKAAGYKAVRICTTWEGHIGAAPAYALEQKWLDRVAEIVGYAEKAGLVAIVNTHHDESYWQDISKCYNNAANHEKVKDEVFSVWTQIAEKFKDKGEWLVFESFNEIQDGGWGWSDAFRKNPDAQYKVLNEWNQTFVDAVRSTGGQNATRWLGIPGYACNPGFTIAGLVLPKDYTTANRLMVAVHDYDPYDYTLKDPLIRQWGHTADADKRPSGDNEKAVVDVFNNLKAAYLDKGIPVYLGEMGCSRHTAADFPYQKYYMEYFCKAAADRLLPMYLWDNGAKGVGSERHAYIDHGTGQFVDEDARTLVGLMVKAVTTKDASYTLESVYNSAP
modifications: Description of sequence sequence derived from genomic DNA library from rumen ecosystem, particularly amino acid sequence of clones pBKRR 14 and 20-1; RR14=RR20-1;(see Figure 24)
notes: also capable of hydrolyzing xylan
As for B2, the specific activity in series [1] worked out at 34.60 µmol/min/mg. Besides, the “main hydrolysis products of CMC” value in series [2] is “cellobiose and cellotriose”.
